Experimental data from patent US20110144024A1.

Key:
thrombin [1] = test: cell-based or functional assay
thrombin [2] = test: SPR (Biacore 3000), 50 nM TM irradiated with 80 Gy over immobilized thrombin; reference is sham-irradiated (0 Gy) TM; 3 experiments
thrombin [3] = test: SPR (Biacore 3000), 50 nM TM irradiated with 20 Gy over immobilized thrombin; reference is sham-irradiated (0 Gy) TM; 3 experiments
thrombin [4] = test: SPR (Biacore 3000), 50 nM TM irradiated with 1.77 Gy over immobilized thrombin; reference is sham-irradiated (0 Gy) TM; 3 experiments

mean reduction in protein C activation, TM exposed to 1.77 Gy without MPO (thrombin [1]): 12%
reduction in protein C activation, TM exposed to 1.77 Gy in the presence of MPO (thrombin [1]): 40%
decrease of average RU value relative to baseline (0 Gy) (thrombin [2]): 21.6%
decrease of average RU value relative to baseline (0 Gy) (thrombin [3]): 18.9%
decrease of average RU value relative to baseline (0 Gy) (thrombin [4]): 13.2%
Substance: recombinant full length human thrombomodulin (from UniProt P07204 19-515) (receptor)
